Assay: yeast display, Sf9 membrane polyspecificity reagent, FACS + sequencing; frameworks hold sequencing errors
Summary of the method: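 In a synthetic yeast display library (Saccharomyces cerevisiae BJ5465), nanobody expression was induced with galactose for 36–48 hours. FACS gates were set low and high (top ~1%) using anti-HA fluorescence for expression and streptavidin fluorescence for binding of the Sf9 membrane reagent. Each polyreactivity label is drawn from the gate of origin.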

Sequence	polyreactivity (PSR sort gate)
QVQLVESGGGLVQAGGSLRLSCAASGSTFYPYGMGWYRHAPGKERDLVAAISKRGGSTYYADSVKGRFTISRDNAKNTVYLQMNSLKPEDTAVYYCAAYGAGKFWAEHNYWGQGTQVTVSS	high polyreactivity
QVQLVESGGGLVQAGGSLRLSCAASGSTFYPYPMGWYRQAPGKERELVATISSSGGTTSYADSVKGRFTISRDNAKNTVYLQMNSLKPEDTAVYYGAARGYGSLHHVLGHHDSWGQGTQVTVSS	low polyreactivity
QVQLVESGGGLVQAGGSLRLSCAASGSTFYQYAMGWYRQAPGKERELVAAISKSGGSTYYADSVKGRFTISRDNAKNTVYLQMNSLKPEDTAVYYCATRWIKGRNMDYWGQGTQVTVSS	high polyreactivity
QVQLVESGGGLVQAGGSLRLSCAASGSTFYQYAMGWYRQAPGKERELVAAISRSGSTNYADSVKGRFTISRDNAKNTVYLQMNSLKPEDTAVYDCAARLGTRQYKMDYWGQGTQVTVSS	high polyreactivity
QVQLVESGGGLVQAGGSLRLSCAASGSTFYQYAMGWYRQAPGKERELVARITYNGGRTYYADSVKGRFTISRDNAKNTVYLQMNSLKPEDTAVYYCAARRWSTGGYGQFDYWGQGTQVTVSS	low polyreactivity
QVQLVESGGGLVQAGGSLRLSCAASGSTFYQYVMGWYRQAPGKERELVADITNGGSTYYADSVKGRFTISRDNAKNTVYLQMNSLKPEDTAVYYCAADGGYYWYTYWYGGLYYWGQGTQVTVSS	high polyreactivity
QVQLVESGGGLVQAGGSLRLSCAASGSTFYRNAMGWYIQAPGKEREFVAAISYSGGGTYYADSVKGRFTISRDNAKNTVYLQMNSLKPEETAVYYCAADVSGWEYDYWGQVTQVTVSS	low polyreactivity
QVQLVESGGGLVQAGGSLRLSCAASGSTFYRNAMGWYRQAPGKERAFVAAISFRGGGTYADSVKGRFTISRDNAKNTVYLQMNSLKPEDTAVYYCAADHLSYPRRYEYWGQGTQVTVSS	low polyreactivity
QVQLVESGGGLVQAGGSLRLSCAASGSTFYRNAMGWYRQAPGKEREFVAAISFRGGGTYADSVKGRFTISRDNAKNTVYLQMNSLIPEDTAVYYCAADHLSYRRRYEYWGQGTQVTVSS	low polyreactivity
QVQLVESGGGLVQAGGSLRLSCAASGSTFYRNAMGWYRQAPGKERELVAAISGSDGSTYYADSVKGRFTISRDNAKNTVYLQMNSLKPEDTAVYYCNARRWWVIRDYWGQGTQVTVSS	high polyreactivity
QVQLVESGGGLVQAGGSLRLSCAASGSTFYRNAMGWYRQAPGKERELVAAISRRSGTTYYADSVKGRFTISRDNAKNTVYLQMNSLKPEDTSVYYCATVRGGYDYWGQGTQVTVSS	high polyreactivity
QVQLVESGGGLVQAGGSLRLSCAASGSTFYRNAMGWYRQAPGKERELVAAISSTGGSTYYADSVKGRFTISRDNAKNTVYLQMNSLKPEDTAVYYCARDYSWLTRGSDYDYWGQGTQVTVSS	low polyreactivity
QVQLVESGGGLVQAGGSLRLSCAASGSTFYRNAMGWYRQAPGKERELVAAISTSGGSTYYADSVKGRFTISRDNAKNTVYLQMNSLKPEDTAVYYCATDSYYFDVMYGWKEYDYWGQGTQVTVSS	high polyreactivity
QVQLVESGGGLVQAGGSLRLSCAASGSTFYRNTMGWYRQAPGKERELVAAIRRSGSSTYYADSVKGRFTISRDIAKNTVYLQMNSLKREDTAVYYCAKEGLSYRYYYWGQGTQVTVSS	high polyreactivity
QVQLVESGGGLVQAGGSLRLSCAASGSTFYRYAMGWSRQAPGKERELVAAITWRGGSTYYADSVKGRFTISRDNAKNTLYLQMNSLKPEDTAVYYCAADSYYYRPYHYGYDYWGQGTQVTVSS	high polyreactivity
QVQLVESGGGLVQAGGSLRLSCAASGSTFYRYAMGWYRQAPGKEREFVAAISGSGGSTRYADSVKGRFTISRDNAKNSVFLQMNSLKPEDTAVYYCAARSRYGYSTFDYWGHGTQVTVSS	high polyreactivity
QVQLVESGGGLVQAGGSLRLSCAASGSTFYRYAMGWYRQAPGKERELVAAISTSGGRTYYADSVKGRFTISRDNAKNTVYLQMNSLKPEDTAVYYCAAPYQYGYWGQGTQVTVSS	high polyreactivity
QVQLVESGGGLVQAGGSLRLSCAASGSTFYRYAMGWYRQAPGKERELVAAITRGGGNTYYADSVKGRFTISRDNAKNTVYLQMNSLKPEDTAVYYCNTDPTLRSRVGIWGFDYWGQGTQVTVSS	high polyreactivity
QVQLVESGGGLVQAGGSLRLSCAASGSTFYRYAMGWYRQAPGKERELVAAITRTGGSTYADSVKGRFTISRDNAKNTVYLQMNSLKPEDTAVYYCAVQRYYVSSISPFYYWGQGTQVTVSS	low polyreactivity
QVQLVESGGGLVQAGGSLRLSCAASGSTFYRYAMGWYRQAPGKERELVAAITRTTARTYYADSVKGRFTISRDYAKNTVYLQMNSLKPEDTAVYYCAADLYSWTWSGFRQYDYWGQGTQVTVSS	high polyreactivity
QVQLVESGGGLVQAGGSLRLSCAASGSTFYRYAMGWYRQAPGKERELVARITWSAGRTYYADSVKGRFTISRDTAKNTVYLQMNSLKPEDTAVYYCAADSGGFASNKRMDYWGQGTQVTVSS	high polyreactivity
QVQLVESGGGLVQAGGSLRLSCAASGSTFYRYPMGWYRQAPGKERELVAGITGSGRRTYYADSVKGRFTISRDNAKNTVYFQMNSVKPEDTAVYYCNKRRASWSPAGGTYNYWGQGTQVTVSS	low polyreactivity

Sequence	polyreactivity (PSR sort gate)
QVQLVESGGGLVQAGGSLRLSCAASGSTFYRYTMGWYRQAPGTERELVSAISRSGGSTYYADSVKGRFTISRDNAKNTVYLQMNSLKPEDTAVYYCATYGDFKSGYRYGYWGQGTQVTVSS	high polyreactivity
QVQLVESGGGLVQAGGSLRLSCAASGSTFYRYVMGWYRQAPGKERELVAAITWRGGTTYYADSVKGRFTISRDNAKNTVYLQMNRLNPEDTAVYYCNADRYLGVSEYKTYEYEYWGQGTQVTVSS	low polyreactivity
QVQLVESGGGLVQAGGSLRLSCAASGSTFYSNAMGWYRPAPGKERELVASITRGGSTNYADSVKGRFTISRDNAKNTVYLQMNSLKPEDTAVYYCNAERRYYFYRYDYWGQGTQVTVSS	high polyreactivity
QVQLVESGGGLVQAGGSLRLSCAASGSTFYSNAMGWYRQAPGKERELVAAISYSGGRTYYADSVKGRFTISRDNAKNTVFLQMNSLKPEDTAVYYCNKAYRRYIWHMDYWGQGTQVTVSS	high polyreactivity
QVQLVESGGGLVQAGGSLRLSCAASGSTFYSNAMGWYRQAPGKERELVASISWSSGSTYYADSVKGRFTISRDNAKNTVYLQMNSLKPDDTAVYYCATDAGGPYRFGYWGQGTQVTVSS	low polyreactivity
QVQLVESGGGLVQAGGSLRLSCAASGSTFYSYAMGWSRQAPGKERELVAAITRGGRTYYADSVKGRFTISRDNAKNTVYLQMNSLKPEDTAVYYCNVVTKFTGRGYDYWGQGTQVTVSS	high polyreactivity
QVQLVESGGGLVQAGGSLRLSCAASGSTFYSYAMGWYRQAPGKEREFVAAIRYSGGRTYADSVKGRFSISRDNAKNTVYLQMNSLKPEDTAVYYCAAVYYSYRWPYDYWGQGTQVTVSS	high polyreactivity
QVQLVESGGGLVQAGGSLRLSCAASGSTFYSYAMVWYRPARGPERELVAAITSGGRTYYADSVKGRFTISRDNAKNTVYLQMNCLKPEDTAVYYCSADLPVFGGYRSNRFGYWGQGTQVTVSS	high polyreactivity
QVQLVESGGGLVQAGGSLRLSCAASGSTFYSYGMGWYRPAPGKERELVAAITKRVGRTYYADSVKGRFTISRDNAKNTVYLQMNSLKPEDTAVYYCAARAWTRSVPYGFYYWGQGTQVTVSS	high polyreactivity
QVQLVESGGGLVQAGGSLRLSCAASGSTFYSYVIGWYRQAPGRESELVAVITSGGSTTYADSVNGRFTISRDNAKNTVYLEMNSLIPEDTAVYYCNAAYYNTDTQKVTFDYWGQGTQVTVSS	low polyreactivity
QVQLVESGGGLVQAGGSLRLSCAASGSTFYTNAMGWYRQAPGKERELVAAINRSGGRTYYADSVKGRFTISRDNAKNTVYLQMISLKPEDTAVYYCAARYPLRISTDTARDYYWGQGTQVTVSS	low polyreactivity
QVQLVESGGGLVQAGGSLRLSCAASGSTFYTNAMGWYRQAPGTERELVAAINYSGGSTYYADSVKGRFTISRDNAKNTVYLQMNSQTPEDTAVYYCATDLHWLVTKYGYWGQGTQVTVSS	low polyreactivity
QVQLVESGGGLVQAGGSLRLSCAASGSTFYTNVMGWYRQAPGKDRELVAAISYNSGSTSYADSVKGRFTISRDNAKNTVYLQMNSLKPEDTAVYYCAVRIRLRRARLSYDYWGQGTQVTVSS	high polyreactivity
QVQLVESGGGLVQAGGSLRLSCAASGSTFYTYAMGWYRQAPGKERELVAAITSSGTTNYADSVKGRFTISRDNAKNTVYLQMNSLKPEDTAVYYCAKRSYGGTLHYAFDSWGQGTQVTVSS	low polyreactivity
QVQLVESGGGLVQAGGSLRLSCAASGSTFYTYDMGWYRQAPGKERELVASITSGGSTNYADSVKGRFTISRDNAKNTVYFQMYCMKPVDTAVYYCAVGTYTIYSGTLYDYKYYWGQGTVVTVSS	low polyreactivity
QVQLVESGGGLVQAGGSLRLSCAASGSTFYVNAMGWYRQAPGKERELVAYADSVKGRFTISRDNAKNTVYLQMNSLKPEDTAVYYCNADIEYRPGHGRLGDYDYWGQGTQVTVSS	low polyreactivity
QVQLVESGGGLVQAGGSLRLSCAASGSTFYVYAMGSYRQAPGKERELVAAITRGGSTYYADSVKARFTISRDNAKNTVYLQMNSLKPEDTAVYYCAKYLTGAADLVPEYDYWGQGTQVTVSS	low polyreactivity
QVQLVESGGGLVQAGGSLRLSCAASGSTFYVYAMGWYRQAPGKEREFVAAISFSSGSTYYADSVKGRFTISRDYAKNTVYLQMNSLKPEDTAVYYCAARYRYPRSIGYGYGGAFDYWGQGTQVTVSS	high polyreactivity
QVQLVESGGGLVQAGGSLRLSCAASGSTFYVYAMGWYRQAPGKERELVAAIDSGDSTNYADSVKGRFTISRDNAKNTVYLQMNSLNPEDTAVYYCAVGYWDSRYRYDWPNSDYWGQGTQVTVSS	low polyreactivity
QVQLVESGGGLVQAGGSLRLSCAASGSTFYVYAMGWYRQAPGKERELVAAITVRGGSTYYADSVKGRFTISRDNAKYTVYLQMNSLKPEDTAVYYCAVDVSKPYYEMDYWGQGTQVTVSS	high polyreactivity
QVQLVESGGGLVQAGGSLRLSCAASGSTFYVYDMGWYRQAPGKERELVAAITRRGGSTYYADSVKGRFTISRDNAKNTVYLQMNSLKPVDTAVYYCAARTAYYPTHRYYWGQGTQVTVSS	high polyreactivity

Reference: the nanobody polyreactivity screen of Harvey et al. (2022)
